# Measurements reported in patent publication US20070196860.
# What was measured:
# [1] = system: SEQ ID NO. 30, Ac-ALKLSRYPSFdPSxG-NH2
# [2] = system: SEQ ID NO. 27, Ac-SxPGSFRRR-NH2
# [3] = system: SEQ ID NO. 48, Ac-EEEEYIQdPSxG-NH2
# [4] = system: SEQ ID NO. 42, Ac-SxPGIYAAPFAKKK-NH2
# [5] = system: SEQ ID NO. 41, Ac-SxPGSDDDDD-NH2
# Sequence of MK2 enzyme (P49137 whole entry): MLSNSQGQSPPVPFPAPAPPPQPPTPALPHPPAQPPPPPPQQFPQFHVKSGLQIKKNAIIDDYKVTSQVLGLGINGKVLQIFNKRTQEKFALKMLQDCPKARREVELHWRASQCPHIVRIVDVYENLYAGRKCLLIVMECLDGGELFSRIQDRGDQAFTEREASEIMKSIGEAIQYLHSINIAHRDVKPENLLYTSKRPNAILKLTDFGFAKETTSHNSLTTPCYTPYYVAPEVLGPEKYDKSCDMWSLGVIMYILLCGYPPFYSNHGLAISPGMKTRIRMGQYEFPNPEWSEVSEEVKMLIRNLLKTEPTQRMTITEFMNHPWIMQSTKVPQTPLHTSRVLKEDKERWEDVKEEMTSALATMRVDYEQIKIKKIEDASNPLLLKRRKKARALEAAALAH
substance,measurement,setting,value
RSK,"reaction rate, PMA-treated HeLa lysate",[1],The PMA-treated sample showed a reaction rate of 3.17 RFU/sec
same,"reaction rate, control treated HeLa lysate",[1],the control treated sample had a markedly reduced rate of 0.64 RFU/sec
MK2 enzyme,fluorescence signal at plateau; cascade reaction started by B-Raf captured from NGF-treated PC12 lysate,[2],fluorescence signals that reached a plateau at 150 minutes of incubation (3200 RFU)
same,fluorescence signal at plateau; cascade reaction started by ERK1/2 captured from PDGF-treated NIH3T3 lysate,[2],a fluorescence signal of 3000 RFU that reached a plateau at 335 minutes of incubation
same,fluorescence signal at plateau; cascade reaction started by MEK1 captured from PDGF-treated NIH3T3 lysate,[2],fluorescence signal of 3650 RFU that reached a plateau at 250 minutes of incubation
same,fluorescence signal at plateau; cascade reaction started by p38 MAPK captured from anisomycin treated RAW lysate,[2],fluorescence signal of 3350 RFU that reached a plateau at 60 minutes of incubation
same,fluorescence signal; cascade reaction started by ERK1/2 captured from control NIH3T3 lysate,[2],the control group produced fluorescence signal of 845 RFU
same,fluorescence signal; cascade reaction started by MEK1 captured from control NIH3T3 lysate,[2],the control group produced fluorescence signal of 1050 RFU
same,fluorescence signal; cascade reaction started by p38 MAPK captured from control RAW lysate,[2],the control group produced fluorescence signal of 1250 RFU
c-Src,"reaction rate, c-Src transfected CEF lysate",[3],The c-Src transfected CEF sample showed a reaction rate of 50 RFU/sec
same,"reaction rate, mock transfected (control) CEF lysate",[3],the control treated sample had a markedly reduced rate of 0.048 RFU/sec
p70-S6K,"reaction rate, control treated MCF-7 lysate",[4],the control treated sample had a markedly reduced rate of 0.12 RFU/sec
same,"reaction rate, insulin-treated MCF-7 lysate",[4],The insulin-treated sample showed a reaction rate of 1.13 RFU/sec
Erk1/2 kinase,"reaction rate, PDGF-treated NIH3T3 lysate",[5],The PDGF-treated sample showed a reaction rate of 1.55 RFU/sec
same,"reaction rate, control treated NIH3T3 lysate",[5],the control treated sample had a markedly reduced rate of 0.27 RFU/sec
